The values below are quoted from earlier work in article PMC9489792.

The target of one data set is Glu85 (UniProt position 98, WARYAEWLFTT). Particulars: not stated (presumably the dark/ground state with protonated Schiff base).
Another data set addresses Asp85 (UniProt position 98, WARYADWLFTT). Particulars: not stated (presumably the dark/ground state with protonated Schiff base).

Broadly, the pKa is the pH at which an ionisable group is half protonated. Consider “Bacteriorhodopsin D85E mutant (BR-D85E) (Halobacterium salinarum (organism inferred; the article only says BR / bacteriorhodopsin); D85E)”, for which the pKa with Glu85 is reported as 6.5. Take “Bacteriorhodopsin (BR) (Halobacterium salinarum (organism inferred; the article only says BR / bacteriorhodopsin))”: the pKa with Asp85 is listed as 3.6.
